The supplement of paper PMC7125110
± gives the standard error. For part of these data: This sample holds only a part of the variants without activity.

B1: glmS ribozyme (parent)
chain: AUAAAAGCGCCAGAACUACAGAAAUGUAGUUGACGAGGAGGAGGUUUAUCGAAUUUUCGGCGGAUGCCUCCAAA

Key:
Conditions in all cases: with glucosamine-6-phosphate
glucosamine-6-phosphate [1] = variants of: B1; experiment: kcat; higher = faster cleavage; RNA array
Summary of the method: (§1)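 Weighted Michaelis–Menten fits across concentrations supplied kcat and KM, based on kobs from one- or two-exponential decay fits to normalised per-tile medians. The data came from barcoded ribozyme variants transcribed in situ by E. coli RNA polymerase on sequenced MiSeq chips and tracked at 37 °C by a hybridised Cy3 probe. Glucosamine-6-phosphate (40 μM to 10 mM) in HEPES/KCl/Mg(OAc)2 buffer was flowed in.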

glucosamine-6-phosphate [2] = variants of: B1; experiment: self-cleavage kobs at 40 uM GlcN6P; higher = faster cleavage; RNA array
Summary of the method: as §1

glucosamine-6-phosphate [3] = variants of: B1; experiment: self-cleavage kobs at 2500 uM GlcN6P; higher = faster cleavage; RNA array
Summary of the method: as §1

glucosamine-6-phosphate [4] = variants of: B1; experiment: self-cleavage kobs at 640 uM GlcN6P; higher = faster cleavage; RNA array
Summary of the method: as §1

glucosamine-6-phosphate [5] = variants of: B1; experiment: KM; higher = weaker cofactor use; RNA array
Summary of the method: as §1

glucosamine-6-phosphate [6] = variants of: B1; experiment: self-cleavage kobs at 160 uM GlcN6P; higher = faster cleavage; RNA array
Summary of the method: as §1

glucosamine-6-phosphate [7] = variants of: B1; experiment: self-cleavage kobs at 10000 uM GlcN6P; higher = faster cleavage; RNA array
Summary of the method: as §1

In the case of G7U A53C C58A U69G C70U, the kcat (glucosamine-6-phosphate [1]) is reported as 0.000741 ± 0.00023 s⁻¹, the “self-cleavage kobs at 40 uM GlcN6P” value (glucosamine-6-phosphate [2]) is reported as 7.41e-05 ± 3.3e-05 s⁻¹ and the “self-cleavage kobs at 2500 uM GlcN6P” value (glucosamine-6-phosphate [3]) is reported as 0.000875 ± 0.00036 s⁻¹.

For C16U G37U, the kcat (glucosamine-6-phosphate [1]) was less than 1e-05 s⁻¹ and the “self-cleavage kobs at 40 uM GlcN6P” value (glucosamine-6-phosphate [2]) was less than 1e-05 s⁻¹.

In the case of C50U G66U, the kcat (glucosamine-6-phosphate [1]) is reported as 1.12e-05 ± 2.8e-06 s⁻¹ and the “self-cleavage kobs at 640 uM GlcN6P” value (glucosamine-6-phosphate [4]) is reported as less than 1e-05 s⁻¹.

In the case of U46A U65C, the kcat (glucosamine-6-phosphate [1]) is reported as 0.000937 ± 0.00023 s⁻¹, the KM (glucosamine-6-phosphate [5]) is reported as 2440 ± 1100 µM and the “self-cleavage kobs at 160 uM GlcN6P” value (glucosamine-6-phosphate [6]) is reported as 4.37e-05 ± 1.8e-05 s⁻¹. For the same variant, the “self-cleavage kobs at 640 uM GlcN6P” value (glucosamine-6-phosphate [4]) was 0.00029 ± 6.2e-05 s⁻¹, the “self-cleavage kobs at 2500 uM GlcN6P” value (glucosamine-6-phosphate [3]) was 0.000426 ± 8.2e-05 s⁻¹ and the “self-cleavage kobs at 10000 uM GlcN6P” value (glucosamine-6-phosphate [7]) was 0.000782 ± 0.00014 s⁻¹.

With A15G G59U the kcat (glucosamine-6-phosphate [1]) was 0.000115 ± 2.5e-05 s⁻¹, the “self-cleavage kobs at 640 uM GlcN6P” value (glucosamine-6-phosphate [4]) was 2.79e-05 ± 1.3e-05 s⁻¹ and the “self-cleavage kobs at 2500 uM GlcN6P” value (glucosamine-6-phosphate [3]) was 4.46e-05 ± 1.4e-05 s⁻¹. For the same variant, the “self-cleavage kobs at 10000 uM GlcN6P” value (glucosamine-6-phosphate [7]) was 9.05e-05 ± 1.6e-05 s⁻¹.

For U55C G60U, the kcat (glucosamine-6-phosphate [1]) was 1.04e-05 ± 3.4e-06 s⁻¹, the “self-cleavage kobs at 40 uM GlcN6P” value (glucosamine-6-phosphate [2]) was less than 1e-05 s⁻¹ and the “self-cleavage kobs at 160 uM GlcN6P” value (glucosamine-6-phosphate [6]) was less than 1e-05 s⁻¹. For the same variant, the “self-cleavage kobs at 640 uM GlcN6P” value (glucosamine-6-phosphate [4]) was less than 1e-05 s⁻¹ and the “self-cleavage kobs at 10000 uM GlcN6P” value (glucosamine-6-phosphate [7]) was less than 1e-05 s⁻¹.

For G29C A53G, the kcat (glucosamine-6-phosphate [1]) was 0.00235 ± 0.00053 s⁻¹, the KM (glucosamine-6-phosphate [5]) was 2630 ± 900 µM and the “self-cleavage kobs at 40 uM GlcN6P” value (glucosamine-6-phosphate [2]) was 4.79e-05 ± 7.8e-06 s⁻¹. The “self-cleavage kobs at 160 uM GlcN6P” value (glucosamine-6-phosphate [6]) was 0.000154 ± 2.3e-05 s⁻¹, the “self-cleavage kobs at 640 uM GlcN6P” value (glucosamine-6-phosphate [4]) was 0.000398 ± 5.6e-05 s⁻¹ and the “self-cleavage kobs at 2500 uM GlcN6P” value (glucosamine-6-phosphate [3]) was 0.000948 ± 0.00014 s⁻¹. For the same variant, the “self-cleavage kobs at 10000 uM GlcN6P” value (glucosamine-6-phosphate [7]) was 0.00209 ± 0.00021 s⁻¹.

A6C U56G was tested, and the kcat (glucosamine-6-phosphate [1]) was 4.98e-05 ± 4.1e-06 s⁻¹, the KM (glucosamine-6-phosphate [5]) was 4200 ± 920 µM and the “self-cleavage kobs at 160 uM GlcN6P” value (glucosamine-6-phosphate [6]) was less than 1e-05 s⁻¹. For the same variant, the “self-cleavage kobs at 10000 uM GlcN6P” value (glucosamine-6-phosphate [7]) was 3.5e-05 ± 1.3e-05 s⁻¹.

With A15C C70G C71A the kcat (glucosamine-6-phosphate [1]) was 4.1e-05 ± 1.4e-05 s⁻¹, the “self-cleavage kobs at 160 uM GlcN6P” value (glucosamine-6-phosphate [6]) was 4.75e-05 ± 2e-05 s⁻¹ and the “self-cleavage kobs at 640 uM GlcN6P” value (glucosamine-6-phosphate [4]) was 6.35e-05 ± 1.7e-05 s⁻¹.

G40U A52G was tested, and the kcat (glucosamine-6-phosphate [1]) was 0.000217 ± 3.4e-05 s⁻¹, the KM (glucosamine-6-phosphate [5]) was 1490 ± 600 µM and the “self-cleavage kobs at 640 uM GlcN6P” value (glucosamine-6-phosphate [4]) was 7.61e-05 ± 1.5e-05 s⁻¹. The “self-cleavage kobs at 2500 uM GlcN6P” value (glucosamine-6-phosphate [3]) was 0.000112 ± 1.8e-05 s⁻¹ and the “self-cleavage kobs at 10000 uM GlcN6P” value (glucosamine-6-phosphate [7]) was 0.000206 ± 2.5e-05 s⁻¹.

With U55G U69C the kcat (glucosamine-6-phosphate [1]) was 0.000334 ± 4.6e-05 s⁻¹, the “self-cleavage kobs at 40 uM GlcN6P” value (glucosamine-6-phosphate [2]) was 0.000197 ± 4.3e-05 s⁻¹ and the “self-cleavage kobs at 160 uM GlcN6P” value (glucosamine-6-phosphate [6]) was 0.000229 ± 6.1e-05 s⁻¹. For the same variant, the “self-cleavage kobs at 640 uM GlcN6P” value (glucosamine-6-phosphate [4]) was 0.000303 ± 6.9e-05 s⁻¹, the “self-cleavage kobs at 2500 uM GlcN6P” value (glucosamine-6-phosphate [3]) was 0.000289 ± 6.4e-05 s⁻¹ and the “self-cleavage kobs at 10000 uM GlcN6P” value (glucosamine-6-phosphate [7]) was 0.000457 ± 8e-05 s⁻¹.

In the case of A64U C67A, the kcat (glucosamine-6-phosphate [1]) is reported as 2.58e-05 ± 3.2e-06 s⁻¹ and the “self-cleavage kobs at 10000 uM GlcN6P” value (glucosamine-6-phosphate [7]) is reported as 2.41e-05 ± 6.5e-06 s⁻¹.

With U46C C71A the kcat (glucosamine-6-phosphate [1]) was 0.000545 ± 4.7e-05 s⁻¹, the KM (glucosamine-6-phosphate [5]) was 811 ± 130 µM and the “self-cleavage kobs at 160 uM GlcN6P” value (glucosamine-6-phosphate [6]) was 8.19e-05 ± 2.2e-05 s⁻¹. For the same variant, the “self-cleavage kobs at 640 uM GlcN6P” value (glucosamine-6-phosphate [4]) was 0.000252 ± 4.5e-05 s⁻¹, the “self-cleavage kobs at 2500 uM GlcN6P” value (glucosamine-6-phosphate [3]) was 0.00045 ± 9.1e-05 s⁻¹ and the “self-cleavage kobs at 10000 uM GlcN6P” value (glucosamine-6-phosphate [7]) was 0.000453 ± 0.00011 s⁻¹.

In the case of C50A G59A, the kcat (glucosamine-6-phosphate [1]) is reported as less than 1e-05 s⁻¹ and the “self-cleavage kobs at 640 uM GlcN6P” value (glucosamine-6-phosphate [4]) is reported as less than 1e-05 s⁻¹.

U45A U56C was tested, and the kcat (glucosamine-6-phosphate [1]) was 0.00585 ± 0.0022 s⁻¹, the KM (glucosamine-6-phosphate [5]) was 3070 ± 1400 µM and the “self-cleavage kobs at 40 uM GlcN6P” value (glucosamine-6-phosphate [2]) was 7.22e-05 ± 1e-05 s⁻¹. The “self-cleavage kobs at 160 uM GlcN6P” value (glucosamine-6-phosphate [6]) was 0.000234 ± 3.5e-05 s⁻¹, the “self-cleavage kobs at 640 uM GlcN6P” value (glucosamine-6-phosphate [4]) was 0.0014 ± 0.00014 s⁻¹ and the “self-cleavage kobs at 2500 uM GlcN6P” value (glucosamine-6-phosphate [3]) was 0.00259 ± 0.00069 s⁻¹. The “self-cleavage kobs at 10000 uM GlcN6P” value (glucosamine-6-phosphate [7]) was 0.00411 ± 0.00072 s⁻¹.

In the case of A14G G37U, the kcat (glucosamine-6-phosphate [1]) is reported as 2.35e-05 ± 1.3e-06 s⁻¹, the KM (glucosamine-6-phosphate [5]) is reported as 1680 ± 470 µM and the “self-cleavage kobs at 40 uM GlcN6P” value (glucosamine-6-phosphate [2]) is reported as less than 1e-05 s⁻¹. The “self-cleavage kobs at 10000 uM GlcN6P” value (glucosamine-6-phosphate [7]) was 2.02e-05 ± 1e-05 s⁻¹.

In the case of U54G G59U, the kcat (glucosamine-6-phosphate [1]) is reported as 3.86e-05 ± 1.5e-06 s⁻¹, the KM (glucosamine-6-phosphate [5]) is reported as 544 ± 170 µM and the “self-cleavage kobs at 2500 uM GlcN6P” value (glucosamine-6-phosphate [3]) is reported as 3.03e-05 ± 9.3e-06 s⁻¹. The “self-cleavage kobs at 10000 uM GlcN6P” value (glucosamine-6-phosphate [7]) was 3.71e-05 ± 6.4e-06 s⁻¹.
